Assay results as given in US20230047179A1 (SYDDANSK UNIVERSITET, published 2023).

T1: recombinant human MFAP4 (human, UniProt P55083 22-255)
T1 construct: mature; also called rhMFAP4; hrMFAP4
T1 sequence (looked up): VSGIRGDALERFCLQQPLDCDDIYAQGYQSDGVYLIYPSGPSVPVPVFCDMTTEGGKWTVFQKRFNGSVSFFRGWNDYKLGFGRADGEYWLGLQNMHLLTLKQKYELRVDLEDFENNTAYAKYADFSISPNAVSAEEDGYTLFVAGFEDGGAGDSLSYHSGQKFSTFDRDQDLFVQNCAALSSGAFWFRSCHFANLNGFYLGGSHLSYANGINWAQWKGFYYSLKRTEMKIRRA

T2: recombinant mouse MFAP4 (mouse, UniProt Q9D1H9 23-257)
T2 construct: mature; The expression plasmid is pcDNA5/FRT/V5-His TOPO TA; also called murine MFAP4; mouse serum MFAP4
T2 sequence (looked up): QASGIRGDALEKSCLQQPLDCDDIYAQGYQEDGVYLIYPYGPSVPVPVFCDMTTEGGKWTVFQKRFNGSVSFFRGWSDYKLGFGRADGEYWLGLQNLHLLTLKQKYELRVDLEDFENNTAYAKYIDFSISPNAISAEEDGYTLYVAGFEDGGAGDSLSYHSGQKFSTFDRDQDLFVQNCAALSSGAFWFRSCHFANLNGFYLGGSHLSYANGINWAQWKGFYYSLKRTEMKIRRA

T3: recombinant human MFAP4 with RGD integrin binding motif mutated to AAA (human, UniProt P55083 22-255)
T3 construct: mature; also called human MFAP4 RGD-AAA mutation
T3 sequence (looked up): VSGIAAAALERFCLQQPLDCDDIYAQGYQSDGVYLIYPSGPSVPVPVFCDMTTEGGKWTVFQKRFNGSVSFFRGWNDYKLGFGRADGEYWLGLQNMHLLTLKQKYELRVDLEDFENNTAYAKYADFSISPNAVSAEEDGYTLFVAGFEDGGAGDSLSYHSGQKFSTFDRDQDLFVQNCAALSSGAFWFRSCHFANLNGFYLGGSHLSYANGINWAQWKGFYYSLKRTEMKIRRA


What was measured:
[1] = target: T1, recombinant human MFAP4; assay: competition ELISA on immobilized recombinant human MFAP4; competitor: biotinylated hAS0326 at 0.5 µg/ml
Protocol: (§1) Biotinylated A) HG HYB 7-5 (biotinHYB7-5), B) hAS0326 ([…]) and C) mAS0326 (bmAS0326) at a fixed concentration of 0.5 μg/ml were mixed with unlabelled IgG isotype control, HG HYB 7-18 (HYB7-18), HG HYB 7-5 (HYB7-5), hAS0326 and mAS0326 in a 2-fold dilution from 20 μg/ml. […] Only HG Hyb 7-5 was capable of inhibiting the HG HYB 7-5 interaction with target. In contrast, mAS0326 was capable of inhibiting hAS0326 binding to target and vice versa.
(§2) 96-well plates (Nunc-MaxiSorp) were coated with 0.5 μg recombinant human MFAP4 in PBS O.N at 4° C. followed by washing and then blocking in TBS/Tw O.N at 4° C. Biotinylated Mab (0.5 μg/ml) and unlabeled MAbs (diluted 2-fold from 20 μg/ml to 156 ng/ml) were premixed in a separate microtiterplate in TBS/Tw and then added to the MFAP4 coated microtiter plate. The plates were following incubated for 2 hours at R.T. The plates were washed three times in TBS/Tw and incubated for 20 min with Strepavidin Horseradish Peroxidase (HRP) conjugate (Invitrogen) diluted 1:2000 in TBS/Tw. […] Colour development was stopped by the addition of 100 μl 1 M H₂SO₄, and the plates were read at OD₄₉₂ nm with OD₆₀₀ nm as reference.

[2] = target: T1, recombinant human MFAP4; assay: SPR, Biacore T200
[3] = target: T1, recombinant human MFAP4; assay: competition ELISA on immobilized recombinant human MFAP4; competitor: biotinylated mAS0326 at 0.5 µg/ml
Protocol: as §1, §2

[4] = target: T2, recombinant mouse MFAP4; assay: direct ELISA, biotinylated antibody on coated recombinant mouse MFAP4, streptavidin-HRP
Protocol: (§3) 96-well plates (Nunc-MaxiSorp) (Nunc™) were coated with 0.5 μg recombinant mouse MFAP4, recombinant human MFAP4 and recombinant human MFAP4 with the RGD-sequence mutated to AAA in PBS O.N at 4° C. Coating was followed by washing and then blocking in TBS/Tw O.N at 4° C. Blocking was followed by addition of biotinylated antibodies diluted 2-fold from an initial concentration of 100 ng/ml. The plates were then incubated for 2 hours at R.T. The plates were washed three times in TBS/Tw and incubated for 20 minutes with Strepavidin Horseradish Peroxidase (HRP) conjugate (Invitrogen) diluted 1:2000 in TBS/Tw. After final three washes, the amount of bound enzyme was estimated by adding OPD (0.8 mg/ml, Kementec, Taastrup, Denmark) dissolved in substrate buffer (0.03% freshly prepared H₂O₂) and allowed to react for 15 minutes in the dark at RT. Colour development was stopped by the addition of 100 μl 1 M H₂SO₄, and the plates were read at OD₄₉₂ nm with OD₆₀₀ nm as reference.

[5] = target: T3, recombinant human MFAP4 with RGD …; assay: direct ELISA, biotinylated antibody on coated recombinant human MFAP4 with RGD mutated to AAA, streptavidin-HRP
Protocol: as §3

[6] = target: T1, recombinant human MFAP4; assay: competition ELISA on immobilized recombinant human MFAP4; competitor: biotinylated HG HYB 7-5 at 0.5 µg/ml
Protocol: as §1, §2

IC50 (read off the curve) [1] [µg/mL] | Kd [2] [nM] | IC50 (read off the curve) [3] [µg/mL] | binding result [4] | binding result [5] | IC50 (read off the curve) [6] [µg/mL] | Binder
~0.9 | 0.14 | ~0.9 | binds |  |  | mAS0326 (antibody, V domains shown, Murine hybridoma monoclonal antibody raised against human recombinant MFAP4; also called biotinmAS0326; bmAS0326) VH: QVQLQQPGADLVKPGTSVKLSCKASGFTFTSYWMHWVKQRPGQGLEWIGVIHPNSGNTKYNEKFRSEATLTVDKSSNTAYIQLSSLTSEDSAVYYCAREMWNYGNSWYFDVWGTGTTVTVSS VL: DVQIIQSPSYLAASPGETITINCRASKSISKYLAWYQERPGKTNKLLIYSGSTLQSGIPSRFSGSGSGTDFTLTISSLEPEDFAMYYCQQHNEYPFTFGAGTKLELK
 | 0.504 |  |  |  |  | Chimeric antibody (mAS0326 with human Fc, CHO expression) (antibody, V domains shown) VH: QVQLQQPGADLVKPGTSVKLSCKASGFTFTSYWMHWVKQRPGQGLEWIGVIHPNSGNTKYNEKFRSEATLTVDKSSNTAYIQLSSLTSEDSAVYYCAREMWNYGNSWYFDVWGTGTTVTVSS VL: DVQIIQSPSYLAASPGETITINCRASKSISKYLAWYQERPGKTNKLLIYSGSTLQSGIPSRFSGSGSGTDFTLTISSLEPEDFAMYYCQQHNEYPFTFGAGTKLELK
 |  |  | no binding (tested: 100 ng/ml) | no binding (tested: 100 ng/ml) | ~0.8 | HG HYB 7-5 (antibody, V domains shown, also called biotinHYB7-5) VH: EVQLQQSGPELVKPGASVKLSCKTSGYTFTSYDMNWVKQRPGQGLEWIGWIFPRDGSTKFNEKFKGKATLTVDTSSTTAYMELHSLTSEDSAVYFCARAEIFFDYGFDYWGQGTTLTVSS VL: DIVMTQSTALMAASPGEKVTITCSVSSSISSSNLHWYQQKSETSPKSWIYGTSNLASGVPGRFSGSGSGTSYSLTISSVEAEDAATYYCQQWSSYPLTFGGGTKLEIK
